According to PMC10850359, “A mediator of OsbZIP46 deactivation and degradation negatively regulates seed dormancy in rice”:

Target: T1, His::ABI5 (Oryza sativa (rice), UniProt Q8RZ35 1-388)
T1 sequence: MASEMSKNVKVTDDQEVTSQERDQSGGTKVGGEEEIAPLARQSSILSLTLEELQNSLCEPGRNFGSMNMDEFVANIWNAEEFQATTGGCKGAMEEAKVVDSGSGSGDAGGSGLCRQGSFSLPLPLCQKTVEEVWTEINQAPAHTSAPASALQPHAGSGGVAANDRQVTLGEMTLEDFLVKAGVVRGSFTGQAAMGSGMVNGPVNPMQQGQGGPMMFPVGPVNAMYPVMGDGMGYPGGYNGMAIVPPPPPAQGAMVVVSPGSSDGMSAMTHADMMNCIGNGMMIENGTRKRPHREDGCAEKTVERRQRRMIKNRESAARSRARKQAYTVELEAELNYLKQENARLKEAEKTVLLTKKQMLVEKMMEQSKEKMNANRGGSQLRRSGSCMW
Assay: EMSA; Beyotime Chemiluminescent EMSA Kit; 2 ug His::ABI5, 1 uL biotin probe (1 ng), 25 C, 20 min; unlabeled probe (1 ng) as competitor; buffer, salt and pH not stated
Settings: protein: recombinant; tags: His (pET28a); chain copies: 2; label: biotin; blunt

B1: EMSA-EM1-bio (dsDNA)
DNA 1: CATAGCTTGCGCACGTACGTGTCGCGCTCCGGCGG
DNA 2: CCGCCGGAGCGCGACACGTACGTGCGCAAGCTATG
  binding result: binds

B2: EMSA-LEA3-bio (dsDNA)
DNA 1: GATGACTTGGCATGCTCACGTGGCATTTTTTTTGGTCTAA
DNA 2: TTAGACCAAAAAAAATGCCACGTGAGCATGCCAAGTCATC
  binding result: binds
